Source: PMC11314421

Target: ΔNCL (DelNucleolin) (UniProt P19338 284-710, del1-283)
Test: SPR

Sequence of ΔNCL (DelNucleolin) (P19338 284-710, stated change not applied): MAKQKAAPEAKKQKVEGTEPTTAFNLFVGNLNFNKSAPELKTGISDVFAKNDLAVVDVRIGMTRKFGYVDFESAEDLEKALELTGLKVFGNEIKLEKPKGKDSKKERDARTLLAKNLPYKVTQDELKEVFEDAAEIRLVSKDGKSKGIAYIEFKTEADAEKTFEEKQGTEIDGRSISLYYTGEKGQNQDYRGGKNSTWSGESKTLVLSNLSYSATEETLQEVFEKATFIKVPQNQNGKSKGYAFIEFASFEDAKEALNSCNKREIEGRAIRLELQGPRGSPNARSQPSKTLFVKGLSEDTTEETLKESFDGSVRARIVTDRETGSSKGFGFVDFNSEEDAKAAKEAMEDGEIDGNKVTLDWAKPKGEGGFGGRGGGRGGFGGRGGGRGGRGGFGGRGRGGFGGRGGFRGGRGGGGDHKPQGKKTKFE

B1: Q2 (biotinylated, SPR) (structured_RNA)
RNA: UUUUUCCUGGAAUUUGGAGGGAUGGGAGGAGGGGGUGGGGCUUACUUGUUGUAGCUU
In the case of B1, the Kd is reported as 4 nM.

B2: Q3 (biotinylated, SPR) (structured_RNA)
RNA: CUCAAGCGGUGCUUGAAGGGGAGGGAAAGCGGGAAAGCGGGCAACCACUUUUCCCUAGC
For B2, the Kd was 15 nM.
